Laboratory results taken from patent US20240409635A1 (VIBRANT PHARMA, published 2024).
Substitutions are numbered along the chain they refer to.

T1: recombinant human tumor antigen CEACAM-6 (ACRO systems, CE6-H5223) (human, UniProt P40199 35-320)
T1 construct: Bought
T1 sequence (looked up): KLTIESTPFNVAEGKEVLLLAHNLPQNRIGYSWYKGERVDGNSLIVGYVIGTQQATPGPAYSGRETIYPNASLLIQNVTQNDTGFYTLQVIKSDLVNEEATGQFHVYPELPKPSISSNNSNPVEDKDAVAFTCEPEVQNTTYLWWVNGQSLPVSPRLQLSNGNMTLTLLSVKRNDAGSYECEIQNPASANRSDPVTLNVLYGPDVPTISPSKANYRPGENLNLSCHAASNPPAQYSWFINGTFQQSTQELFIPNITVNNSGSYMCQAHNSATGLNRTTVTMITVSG

B1: CEA-BsAb (CD3 TA1-Fab x CEA VHH bispecific control antibody) (bispecific antibody, human IgG4 S228P, kappa, F234A L235A)
heavy: EVKLLESGGGLVQPKGSLKLSCAASGFTFNTYAMNWVRQAPGKGLEWVARIRSKYNNYATYYADSVKDRFTISRDDSQSILYLQMNNLKTEDTAMYYCVRHGNFGNSYVSWFAYWGQGTLVTVSSASTKGPSVFPLAPCSRSTSESTAALGCLVKDYFPEPVTVSWNSGALTSGVHTFPAVLQSSGLYSLSSVVTVPSSSLGTKTYTCNVDHKPSNTKVDKRVESKYGPPCPPCPAPEAAGGPSVFLFPPKPKDTLMISRTPEVTCVVVDVSQEDPEVQFNWYVDGVEVHNAKTKPREEQFNSTYRVVSVLTVLHQDWLNGKEYKCKVSNKGLPSSIEKTISKAKGQPREPQVYTLPPCQEEMTKNQVSLWCLVKGFYPSDIAVEWESNGQPENNYKTTPPVLDSDGSFFLYSRLTVDKSRWQEGNVFSCSVMHEALHNHYTQKSLSLSL
chain: EVQLVESGGGFVQAGESLTLSCTSSTLTFTPYRMAWYRQAPGKQRDLVADISSGDGRTTNYADFAKGRFTISRDNIKNTVFLRMTNLKPEDTAVYYCNTFVSFVGIARSWGQGTQVTVSSESKYGPPCPPCPAPEAAGGPSVFLFPPKPKDTLMISRTPEVTCVVVDVSQEDPEVQFNWYVDGVEVHNAKTKPREEQFNSTYRVVSVLTVLHQDWLNGKEYKCKVSNKGLPSSIEKTISKAKGQPREPQVCTLPPSQEEMTKNQVSLSCAVKGFYPSDIAVEWESNGQPENNYKTTPPVLDSDGSFFLVSRLTVDKSRWQEGNVFSCSVMHEALHNRFTQKSLSLSL
light: QAVVTQESALTTSPGETVTLTCRSSTGAVTTSNYANWVQEKPDHLFTGLIGGTNKRAPGVPARFSGSLIGDKAALTITGAQTEDEAIYFCALWYSNLWVFGGGTKVEIKRTVAAPSVFIFPPSDEQLKSGTASVVCLLNNFYPREAKVQWKVDNALQSGNSQESVTEQDSKDSTYSLSSTLTLSKADYEKHKVYACEVTHQGLSSPVTKSFNRGEC
B2: unilateral CD3/CEA-CAM6/HER2 trispecific antibody 701 (other)
chain 1: B1 heavy
chain 2: QVQLVQSGGGLVQAGGSLRLSCAASGRTFSSYAMAWFRQAPGKEREFVAAISWSGANIYVADSVKGRFTISRDNAKDTVYLQMNSLKPEDTAVYYCAVKLGFAPVEERQYDYWGQGTQVTVSSESKYGPPCPPCPAPEAAGGPSVFLFPPKPKDTLMISRTPEVTCVVVDVSQEDPEVQFNWYVDGVEVHNAKTKPREEQFNSTYRVVSVLTVLHQDWLNGKEYKCKVSNKGLPSSIEKTISKAKGQPREPQVCTLPPSQEEMTKNQVSLSCAVKGFYPSDIAVEWESNGQPENNYKTTPPVLDSDGSFFLVSRLTVDKSRWQEGNVFSCSVMHEALHNRFTQKSLSLSL
chain 3: QAVVTQESALTTSPGETVTLTCRSSTGAVTTSNYANWVQEKPDHLFTGLIGGTNKRAPGVPARFSGSLIGDKAALTITGAQTEDEAIYFCALWYSNLWVFGGGTKVEIKRTVAAPSVFIFPPSDEQLKSGTASVVCLLNNFYPREAKVQWKVDNALQSGNSQESVTEQDSKDSTYSLSSTLTLSKADYEKHKVYACEVTHQGLSSPVTKSFNRGECGGGGSGGGGSQVKLEESGGGLVQAGGSLRLSCRTSGRTNSVYTMGWFRQAPGKEREFVAQIMWGAGTNTHYADSVKGRFTISRDSAESTVYLQMNSLKPEDTAVYYCAANRGIPIAGRQYDYWGQGTQVTVSS
B3: unilateral CD3/CEA-CAM6/HER2 trispecific antibody 710 (other)
chain 1: QVKLEESGGGLVQAGGSLRLSCRTSGRTNSVYTMGWFRQAPGKEREFVAQIMWGAGTNTHYADSVKGRFTISRDSAESTVYLQMNSLKPEDTAVYYCAANRGIPIAGRQYDYWGQGTQVTVSSESKYGPPCPPCPAPEAAGGPSVFLFPPKPKDTLMISRTPEVTCVVVDVSQEDPEVQFNWYVDGVEVHNAKTKPREEQFNSTYRVVSVLTVLHQDWLNGKEYKCKVSNKGLPSSIEKTISKAKGQPREPQVYTLPPCQEEMTKNQVSLWCLVKGFYPSDIAVEWESNGQPENNYKTTPPVLDSDGSFFLYSRLTVDKSRWQEGNVFSCSVMHEALHNHYTQKSLSLSL
chain 2: B1 heavy with Y354C, C359S, W371S, L373A, Y412V, H440R, Y441F
chain 3: QVQLVQSGGGLVQAGGSLRLSCAASGRTFSSYAMAWFRQAPGKEREFVAAISWSGANIYVADSVKGRFTISRDNAKDTVYLQMNSLKPEDTAVYYCAVKLGFAPVEERQYDYWGQGTQVTVSSGGGGSGGGGSQAVVTQESALTTSPGETVTLTCRSSTGAVTTSNYANWVQEKPDHLFTGLIGGTNKRAPGVPARFSGSLIGDKAALTITGAQTEDEAIYFCALWYSNLWVFGGGTKVEIKRTVAAPSVFIFPPSDEQLKSGTASVVCLLNNFYPREAKVQWKVDNALQSGNSQESVTEQDSKDSTYSLSSTLTLSKADYEKHKVYACEVTHQGLSSPVTKSFNRGEC
B4: unilateral CD3/CEA-CAM6/HER2 trispecific antibody 711 (other)
chain 1: QVQLVQSGGGLVQAGGSLRLSCAASGRTFSSYAMAWFRQAPGKEREFVAAISWSGANIYVADSVKGRFTISRDNAKDTVYLQMNSLKPEDTAVYYCAVKLGFAPVEERQYDYWGQGTQVTVSSGGGGSGGGGSEVKLLESGGGLVQPKGSLKLSCAASGFTFNTYAMNWVRQAPGKGLEWVARIRSKYNNYATYYADSVKDRFTISRDDSQSILYLQMNNLKTEDTAMYYCVRHGNFGNSYVSWFAYWGQGTLVTVSSASTKGPSVFPLAPCSRSTSESTAALGCLVKDYFPEPVTVSWNSGALTSGVHTFPAVLQSSGLYSLSSVVTVPSSSLGTKTYTCNVDHKPSNTKVDKRVESKYGPPCPPCPAPEAAGGPSVFLFPPKPKDTLMISRTPEVTCVVVDVSQEDPEVQFNWYVDGVEVHNAKTKPREEQFNSTYRVVSVLTVLHQDWLNGKEYKCKVSNKGLPSSIEKTISKAKGQPREPQVYTLPPCQEEMTKNQVSLWCLVKGFYPSDIAVEWESNGQPENNYKTTPPVLDSDGSFFLYSRLTVDKSRWQEGNVFSCSVMHEALHNHYTQKSLSLSL
chain 2: B3 chain 1 with Y254C, C259S, W271S, L273A, Y312V, H340R, Y341F
chain 3: B1 light
B5: unilateral CD3/CEA-CAM6/HER2 trispecific antibody 703 (other)
chain 1: B1 heavy
chain 2: B2 chain 2
chain 3: QVKLEESGGGLVQAGGSLRLSCRTSGRTNSVYTMGWFRQAPGKEREFVAQIMWGAGTNTHYADSVKGRFTISRDSAESTVYLQMNSLKPEDTAVYYCAANRGIPIAGRQYDYWGQGTQVTVSSGGGGSGGGGSQAVVTQESALTTSPGETVTLTCRSSTGAVTTSNYANWVQEKPDHLFTGLIGGTNKRAPGVPARFSGSLIGDKAALTITGAQTEDEAIYFCALWYSNLWVFGGGTKVEIKRTVAAPSVFIFPPSDEQLKSGTASVVCLLNNFYPREAKVQWKVDNALQSGNSQESVTEQDSKDSTYSLSSTLTLSKADYEKHKVYACEVTHQGLSSPVTKSFNRGEC
B6: unilateral CD3/CEA-CAM6/HER2 trispecific antibody 709 (other)
chain 1: B1 heavy
chain 2: B3 chain 1 with Y254C, C259S, W271S, L273A, Y312V, H340R, Y341F
chain 3: B3 chain 3

Target: T2, recombinant human protein CD3ε/δ (ACRO systems, CDD-H52W1) (human, UniProt P07766 23-126; P04234 22-105)
T2 construct: Bought heterodimer
T2 sequence (P07766 23-126, stated change not applied, chain 1 of 2): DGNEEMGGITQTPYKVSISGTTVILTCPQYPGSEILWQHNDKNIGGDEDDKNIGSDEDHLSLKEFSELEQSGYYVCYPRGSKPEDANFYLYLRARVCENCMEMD
T2 sequence (P04234 22-105, stated change not applied, chain 2 of 2): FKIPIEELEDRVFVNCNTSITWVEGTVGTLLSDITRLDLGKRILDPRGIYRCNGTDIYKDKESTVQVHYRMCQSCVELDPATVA
Assay: BLI, antibody on AHC sensor, antigen as analyte
Method: (§1) Antibodies were first captured onto an anti-human IgG Fc coated AHC biosensor (Anti-hIgG Fc, Sartorius, 18-5060). Antibodies were diluted to 5 μg/mL and 1.5 nm protein was coupled to the AHC sensor surface in 0.02% PBST.
(§2) After the sensor captures the antibodies, it binds and dissociates with different concentrations of analytes to obtain the KD value of the interaction. The experimental parameters are as follows: Baseline1: 60 s, Loading: 240 s, Baseline2: 180 s, Association: 240 s, Dissociation: 600 s, High sensitivity kinetics: 2 Hz. Kinetic constants were derived based on the rate equation for 1:1 Langmuir binding to obtain equilibrium dissociation constants (KD). The Data Analysis HT 12 software (Sartorius, 50-5029) was used to simultaneously fit binding and dissociation curves to calculate Kₒₙ and Koff. The affinity KD was calculated based on the below formula: KD=Koff/Kₒₙ.

Kd [nM]	koff [s⁻¹]	kon [M⁻¹ s⁻¹]	Binder
1.64	0.00045	275000	B1

Target: T3, recombinant human tumor antigen HER2 (ERBB2, ACRO systems, HE2-H5212) (human, UniProt P04626 23-652)
T3 construct: Bought
Assay: BLI, antibody on AHC sensor, antigen as analyte
Method: as §1, §2

koff [s⁻¹]	kon [M⁻¹ s⁻¹]	Binder
0.027	3680	B1

Target: T1, recombinant human tumor antigen …
Assay: BLI, antibody on AHC sensor, antigen as analyte

Kd [nM]	koff [s⁻¹]	kon [M⁻¹ s⁻¹]	Binder
13.3	0.00297	223000	B2
4.48	0.00179	398000	B3
4.52	0.00254	562000	B4
5.16	0.00187	363000	B5
4.16	0.0018	433000	B6

Target: T3, recombinant human tumor antigen HER2 …
Assay: BLI, antibody on AHC sensor, antigen as analyte
Remark: another data set of the same source

Kd [nM]	koff [s⁻¹]	kon [M⁻¹ s⁻¹]	Binder
37.5	0.00693	185000	B2
15.4	0.00383	249000	B3
38.9	0.00888	228000	B4
16.3	0.00356	218000	B5
20.7	0.00455	219000	B6

Target: T2, recombinant human protein CD3ε/δ (ACRO …)
Assay: BLI, antibody on AHC sensor, antigen as analyte
Remark: another data set of the same source

Kd [nM]	koff [s⁻¹]	kon [M⁻¹ s⁻¹]	Binder
1.3	0.000402	309000	B2
0.686	0.000127	186000	B3
1.41	0.000516	367000	B4
0.379	8.4e-05	222000	B5
0.351	6.18e-05	176000	B6
